Data published in the MegaScale stability set (Tsuboyama et al. 2023).

B1: 5KPH (parent)
chain: EEKRQVKQVAKEKLLEQSPNSKVQVRRVQKQGNTIRVELELRTNGKKENYTVEVERQGNTWTVKRITRT

Variants of: B1
Assay: folding stability dG (cDNA display proteolysis); higher = more stable
Details: PBS, room temperature

| Variant | folding stability dG |
| --- | --- |
| EEKRQVKQVAKEKLLEQSPNSKVQVRRVQKQGNTIRVELELRTNGKKENYTVEVERQGNTWTVKDITRT [R65D] | 3.59 kcal/mol |
| EEKRQVKQVAKEKLLEQSPNSKVQVRRVQKQGNTIRVELELRTNGKKENYTVEVERQGNTWTVKGITRT [R65G] | 3.6 kcal/mol |
| EEKRQVKQVAKEKLLEQSPNSKVQVRRVQKQGNTIRVELELRTNGKKENYTVEVERQGNTWTVKFITRT [R65F] | 3.53 kcal/mol |
| EEKRQVKQVAKEKLLEQSPNSKVQVRRVQKQGNTIRVELELRTNGKKENYTVEVERQGNTWTVKCITRT [R65C] | 3.44 kcal/mol |
| EEKRQVKQVAKEKLLEQSPNSKVQVRRVQKQGNTIRVELELRTNGKKENYTVEVERQGNTWTVKEITRT [R65E] | 3.61 kcal/mol |
| EEKRQVKQVAKEKLLEQSPNSKVQVRRVQKQGNTIRVELELRTNGKKENYTVEVERQGNTWTVKAITRT [R65A] | 4.27 kcal/mol |
| EEKRQVKQVAKEKLLEQSPNSKVQVRRVQKQGNTIRVELELRTNGKKENYTVEVERQGNTWLVKRITRT [T62L] | 4.03 kcal/mol |
| EEKRQVKQVAKEKLLEQSPNSKVQVRRVQKQGNTIRVELELRTNGKKENYTVEVERQGNTWFVKRITRT [T62F] | 4.24 kcal/mol |
| EEKRQVKQVAKEKLLEQSPNSKVQVRRVQKQGNTIRVELELRTNGKKENYTVEVERQGNTWIVKRITRT [T62I] | 4.26 kcal/mol |
| EEKRQVKQVAKEKLLEQSPNSKVQVRRVQKQGNTIRVELELRTNGKKENYTVEVERQGNTWKVKRITRT [T62K] | 3.96 kcal/mol |
| EEKRQVKQVAKEKLLEQSPNSKVQVRRVQKQGNTIRVELELRTNGKKENYTVEVERQGNTWDVKRITRT [T62D] | 3.13 kcal/mol |
| EEKRQVKQVAKEKLLEQSPNSKVQVRRVQKQGNTIRVELELRTNGKKENYTVEVERQGNTWQVKRITRT [T62Q] | 3.92 kcal/mol |
| EEKRQVKQVAKEKLLEQSPNSKVQVRRVQKQGNTIRVELELRTNGKKENYTVEVERQGNTWEVKRITRT [T62E] | 3.82 kcal/mol |
| EEKRQVKQVAKEKLLEQSPNSKVQVRRVQKQGNTIRVELELRTNGKKENYTVEVERQGNTWAVKRITRT [T62A] | 4.05 kcal/mol |
| EEKRQVKQVAKEKLLEQSPNSKVQVRRVQKQGNTIRVELELRTNGKKENYTVEVERQGNTWNVKRITRT [T62N] | 3.62 kcal/mol |
| EEKRQVKQVAKEKLLEQSPNSKVQVRRVQKQGNTIRVELELRTNGKKENYTVEVERQGNTWWVKRITRT [T62W] | 4.24 kcal/mol |
| EEKRQVKQVAKEKLLEQSPNSKVQVRRVQKQGNTIRVELELRTNGKKENYTVEVERQGNTWRVKRITRT [T62R] | 3.9 kcal/mol |
| EEKRQVKQVAKEKLLEQSPNSKVQVRRVQKQGNTIRVELELRTNGKKENYTVEVERQGNTWGVKRITRT [T62G] | 3.48 kcal/mol |
| EEKRQVKQVAKEKLLEQSPNSKVQVRRVQKQGNTIRVELELRTNGKKENYTVEVERQGNTWMVKRITRT [T62M] | 3.97 kcal/mol |
| EEKRQVKQVAKEKLLEQSPNSKVQVRRVQKQGNTIRVELELRTNGKKENYTVEVERQGNTWCVKRITRT [T62C] | 3.48 kcal/mol |
| EEKRQVKQVAKEKLLEQSPNSKVQVRRVQKQGNTIRVELELRTNGKKENYTVEVERQGNTWYVKRITRT [T62Y] | 4.57 kcal/mol |
| EEKRQVKQVAKEKLLEQSPNSKVQVRRVQKQGNTIRVELELRTNGKKENYTVEVERQGNTWSVKRITRT [T62S] | 3.75 kcal/mol |
| EEKRQVKQVAKEKLLEQSPNSKVQVRRVQKQGNTIRVELELRTNGKKENYTVEVERQGNTWVVKRITRT [T62V] | 4.27 kcal/mol |
| EEKRQVKQVAKEKLLEQSPNSKVQVRRVQKQGNTIRVELELRTNGKKENYTVEVERQGNTWHVKRITRT [T62H] | 3.93 kcal/mol |
| EEKRQVKQVAKEKLLEQSPNSKVQVRRVQKQGNTIRVELELRTNGKKENYTVEVERQGNTWPVKRITRT [T62P] | 1.79 kcal/mol |
| EEKRQVKQVAKEKLLEQSPNSKVQVRRVQKQGNTIRVELELRTNGKKENYTVEVERQGNTWTYKRITRT [V63Y] | 2.01 kcal/mol |

| Variant | folding stability dG |
| --- | --- |
| EEKRQVKQVAKEKLLEQSPNSKVQVRRVQKQGNTIRVELELRTNGKKENYTVEVERQGNTWTNKRITRT [V63N] | 0.507 kcal/mol |
| EEKRQVKQVAKEKLLEQSPNSKVQVRRVQKQGNTIRVELELRTNGKKENYTVEVERQGNTWTTKRITRT [V63T] | 2.51 kcal/mol |
| EEKRQVKQVAKEKLLEQSPNSKVQVRRVQKQGNTIRVELELRTNGKKENYTVEVERQGNTWTFKRITRT [V63F] | 2.78 kcal/mol |
| EEKRQVKQVAKEKLLEQSPNSKVQVRRVQKQGNTIRVELELRTNGKKENYTVEVERQGNTWTIKRITRT [V63I] | 3.47 kcal/mol |
| EEKRQVKQVAKEKLLEQSPNSKVQVRRVQKQGNTIRVELELRTNGKKENYTVEVERQGNTWTMKRITRT [V63M] | 2.06 kcal/mol |
| EEKRQVKQVAKEKLLEQSPNSKVQVRRVQKQGNTIRVELELRTNGKKENYTVEVERQGNTWTPKRITRT [V63P] | 2.8 kcal/mol |
| EEKRQVKQVAKEKLLEQSPNSKVQVRRVQKQGNTIRVELELRTNGKKENYTVEVERQGNTWTLKRITRT [V63L] | 2.88 kcal/mol |
| EEKRQVKQVAKEKLLEQSPNSKVQVRRVQKQGNTIRVELELRTNGKKENYTVEVERQGNTWTDKRITRT [V63D] | 0.956 kcal/mol |
| EEKRQVKQVAKEKLLEQSPNSKVQVRRVQKQGNTIRVELELRTNGKKENYTVEVERQGNTWTQKRITRT [V63Q] | 1.16 kcal/mol |
| EEKRQVKQVAKEKLLEQSPNSKVQVRRVQKQGNTIRVELELRTNGKKENYTVEVERQGNTWTEKRITRT [V63E] | 1.26 kcal/mol |
| EEKRQVKQVAKEKLLEQSPNSKVQVRRVQKQGNTIRVELELRTNGKKENYTVEVERQGNTWTHKRITRT [V63H] | 1.18 kcal/mol |
| EEKRQVKQVAKEKLLEQSPNSKVQVRRVQKQGNTIRVELELRTNGKKENYTVEVERQGNTWTRKRITRT [V63R] | 0.762 kcal/mol |
| EEKRQVKQVAKEKLLEQSPNSKVQVRRVQKQGNTIRVELELRTNGKKENYTVEVERQGNTWTCKRITRT [V63C] | 2.96 kcal/mol |
| EEKRQVKQVAKEKLLEQSPNSKVQVRRVQKQGNTIRVELELRTNGKKENYTVEVERQGNTWTSKRITRT [V63S] | 1.81 kcal/mol |
| EEKRQVKQVAKEKLLEQSPNSKVQVRRVQKQGNTIRVELELRTNGKKENYTVEVERQGNTWTGKRITRT [V63G] | 1.35 kcal/mol |
| EEKRQVKQVAKEKLLEQSPNSKVQVRRVQKQGNTIRVELELRTNGKKENYTVEVERQGNTWTAKRITRT [V63A] | 3.02 kcal/mol |
| EEKRQVKQVAKEKLLEQSPNSKVQVRRVQKQGNTIRVELELRTNGKKENYTVEVERQGNTWTKKRITRT [V63K] | 0.466 kcal/mol |
| EEKRQVKQVAKEKLLEQSPNSKVQVRRVQKQGNTIRVELELRTNGKKENYTVEVERQGNTWTWKRITRT [V63W] | 2.07 kcal/mol |
| EEKRQVKQVAKEKLLEQSPNSKVQVRRVQKQGNTIRVELELRTNGKKENYTVEVERQGNTFTVKRITRT [W61F] | 3.74 kcal/mol |
| EEKRQVKQVAKEKLLEQSPNSKVQVRRVQKQGNTIRVELELRTNGKKENYTVEVERQGNTTTVKRITRT [W61T] | 2.21 kcal/mol |
| EEKRQVKQVAKEKLLEQSPNSKVQVRRVQKQGNTIRVELELRTNGKKENYTVEVERQGNTNTVKRITRT [W61N] | 1.83 kcal/mol |
| EEKRQVKQVAKEKLLEQSPNSKVQVRRVQKQGNTIRVELELRTNGKKENYTVEVERQGNTHTVKRITRT [W61H] | 2.59 kcal/mol |
| EEKRQVKQVAKEKLLEQSPNSKVQVRRVQKQGNTIRVELELRTNGKKENYTVEVERQGNTITVKRITRT [W61I] | 3.14 kcal/mol |
| EEKRQVKQVAKEKLLEQSPNSKVQVRRVQKQGNTIRVELELRTNGKKENYTVEVERQGNTLTVKRITRT [W61L] | 3.64 kcal/mol |
| EEKRQVKQVAKEKLLEQSPNSKVQVRRVQKQGNTIRVELELRTNGKKENYTVEVERQGNTSTVKRITRT [W61S] | 2 kcal/mol |
| EEKRQVKQVAKEKLLEQSPNSKVQVRRVQKQGNTIRVELELRTNGKKENYTVEVERQGNTMTVKRITRT [W61M] | 3.21 kcal/mol |

| Variant | folding stability dG |
| --- | --- |
| EEKRQVKQVAKEKLLEQSPNSKVQVRRVQKQGNTIRVELELRTNGKKENYTVEVERQGNTRTVKRITRT [W61R] | 1.41 kcal/mol |
| EEKRQVKQVAKEKLLEQSPNSKVQVRRVQKQGNTIRVELELRTNGKKENYTVEVERQGNTPTVKRITRT [W61P] | 1.94 kcal/mol |
| EEKRQVKQVAKEKLLEQSPNSKVQVRRVQKQGNTIRVELELRTNGKKENYTVEVERQGNTKTVKRITRT [W61K] | 0.975 kcal/mol |
| EEKRQVKQVAKEKLLEQSPNSKVQVRRVQKQGNTIRVELELRTNGKKENYTVEVERQGNTYTVKRITRT [W61Y] | 4.03 kcal/mol |
| EEKRQVKQVAKEKLLEQSPNSKVQVRRVQKQGNTIRVELELRTNGKKENYTVEVERQGNTGTVKRITRT [W61G] | 1.39 kcal/mol |
| EEKRQVKQVAKEKLLEQSPNSKVQVRRVQKQGNTIRVELELRTNGKKENYTVEVERQGNTQTVKRITRT [W61Q] | 1.88 kcal/mol |
| EEKRQVKQVAKEKLLEQSPNSKVQVRRVQKQGNTIRVELELRTNGKKENYTVEVERQGNTVTVKRITRT [W61V] | 2.9 kcal/mol |
| EEKRQVKQVAKEKLLEQSPNSKVQVRRVQKQGNTIRVELELRTNGKKENYTVEVERQGNTWTVTRITRT [K64T] | 4.29 kcal/mol |
| EEKRQVKQVAKEKLLEQSPNSKVQVRRVQKQGNTIRVELELRTNGKKENYTVEVERQGNTWTVPRITRT [K64P] | 2.28 kcal/mol |
| EEKRQVKQVAKEKLLEQSPNSKVQVRRVQKQGNTIRVELELRTNGKKENYTVEVERQGNTWTVIRITRT [K64I] | 4.47 kcal/mol |
| EEKRQVKQVAKEKLLEQSPNSKVQVRRVQKQGNTIRVELELRTNGKKENYTVEVERQGNTWTVWRITRT [K64W] | 3.08 kcal/mol |
| EEKRQVKQVAKEKLLEQSPNSKVQVRRVQKQGNTIRVELELRTNGKKENYTVEVERQGNTWTVARITRT [K64A] | 3.83 kcal/mol |
| EEKRQVKQVAKEKLLEQSPNSKVQVRRVQKQGNTIRVELELRTNGKKENYTVEVERQGNTWTVRRITRT [K64R] | 3.94 kcal/mol |
| EEKRQVKQVAKEKLLEQSPNSKVQVRRVQKQGNTIRVELELRTNGKKENYTVEVERQGNTWTVMRITRT [K64M] | 4.28 kcal/mol |
| EEKRQVKQVAKEKLLEQSPNSKVQVRRVQKQGNTIRVELELRTNGKKENYTVEVERQGNTWTVDRITRT [K64D] | 2.18 kcal/mol |
| EEKRQVKQVAKEKLLEQSPNSKVQVRRVQKQGNTIRVELELRTNGKKENYTVEVERQGNTWTVSRITRT [K64S] | 3.94 kcal/mol |
| EEKRQVKQVAKEKLLEQSPNSKVQVRRVQKQGNTIRVELELRTNGKKENYTVEVERQGNTWTVCRITRT [K64C] | 3.62 kcal/mol |
| EEKRQVKQVAKEKLLEQSPNSKVQVRRVQKQGNTIRVELELRTNGKKENYTVEVERQGNTWTVQRITRT [K64Q] | 3.56 kcal/mol |
| EEKRQVKQVAKEKLLEQSPNSKVQVRRVQKQGNTIRVELELRTNGKKENYTVEVERQGNTWTVLRITRT [K64L] | 4.27 kcal/mol |
| EEKRQVKQVAKEKLLEQSPNSKVQVRRVQKQGNTIRVELELRTNGKKENYTVEVERQGNTWTVVRITRT [K64V] | 4.3 kcal/mol |
| EEKRQVKQVAKEKLLEQSPNSKVQVRRVQKQGNTIRVELELRTNGKKENYTVEVERQGNTWTVFRITRT [K64F] | 3.7 kcal/mol |
| EEKRQVKQVAKEKLLEQSPNSKVQVRRVQKQGNTIRVELELRTNGKKENYTVEVERQGNTWTVYRITRT [K64Y] | 3.5 kcal/mol |
| EEKRQVKQVAKEKLLEQSPNSKVQVRRVQKQGNTIRVELELRTNGKKENYTVEVERQGNTWTVERITRT [K64E] | 2.86 kcal/mol |
| EEKRQVKQVAKEKLLEQSPNSKVQVRRVQKQGNTIRVELELRTNGKKENYTVEVERQGNTWTVHRITRT [K64H] | 3.25 kcal/mol |
| EEKRQVKQVAKEKLLEQSPNSKVQVRRVQKQGNTIRVELELRTNGKKENYTVEVERQGNTWTVGRITRT [K64G] | 3.25 kcal/mol |
| EEKRQVKQVAKEKLLEQSPNSKVQVRRVQKQGNTIRVELELRTNGKKENYTVEVERQGNTWTVNRITRT [K64N] | 3.48 kcal/mol |
